Assay results from patent publication US20200062844A1 (Regeneron, published 2020).

T1: human FcεR1α expressed on cells (human, UniProt P12319 26-257)
T1 sequence (looked up): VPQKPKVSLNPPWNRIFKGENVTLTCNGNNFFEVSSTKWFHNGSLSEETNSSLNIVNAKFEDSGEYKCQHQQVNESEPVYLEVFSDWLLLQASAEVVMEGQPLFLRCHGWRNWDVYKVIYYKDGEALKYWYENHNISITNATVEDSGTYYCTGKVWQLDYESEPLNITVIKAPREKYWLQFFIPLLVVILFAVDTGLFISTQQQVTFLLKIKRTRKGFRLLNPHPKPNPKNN

T2: hFcεR1α.MMH (human)
T2 construct: also called ectodomain of human FcεR1α with C-term myc-myc-6×His tag
T2 chain: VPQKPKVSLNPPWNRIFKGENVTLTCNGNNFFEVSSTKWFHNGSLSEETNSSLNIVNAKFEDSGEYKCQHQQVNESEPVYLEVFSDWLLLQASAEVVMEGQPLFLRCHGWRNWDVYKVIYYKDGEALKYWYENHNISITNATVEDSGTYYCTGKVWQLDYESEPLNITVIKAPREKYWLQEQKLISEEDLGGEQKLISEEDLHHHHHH

T3: mfFcεR1α.MMH (cynomolgus (Macaca fascicularis))
T3 construct: also called mfFceR1a.MMH; ectodomain of cynomolgus FcεR1α with C-term myc-myc-6×His tag
T3 chain: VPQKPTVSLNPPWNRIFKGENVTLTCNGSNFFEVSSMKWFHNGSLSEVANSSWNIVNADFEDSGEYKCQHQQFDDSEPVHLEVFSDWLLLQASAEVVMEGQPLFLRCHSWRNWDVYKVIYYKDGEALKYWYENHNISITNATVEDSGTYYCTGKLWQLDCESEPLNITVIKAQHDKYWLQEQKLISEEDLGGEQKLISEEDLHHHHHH

B1: bsAb24920D (bispecific antibody, human IgG4 S228P, kappa)
heavy 1: QVQLQESGPGLVKPSETLSLTCTVSGDSINDYYWSWLRQPPGKGLEWIGYIYYSGSTNYNPSLKSRVTISVDTSKNQFSLKLSSVTAADTAVYYCTRRNNWNYVRAFDIWGQGTMVTVSSASTKGPSVFPLAPCSRSTSESTAALGCLVKDYFPEPVTVSWNSGALTSGVHTFPAVLQSSGLYSLSSVVTVPSSSLGTKTYTCNVDHKPSNTKVDKRVESKYGPPCPPCPAPPVAGPSVFLFPPKPKDTLMISRTPEVTCVVVDVSQEDPEVQFNWYVDGVEVHNAKTKPREEQFNSTYRVVSVLTVLHQDWLNGKEYKCKVSNKGLPSSIEKTISKAKGQPREPQVYTLPPSQEEMTKNQVSLTCLVKGFYPSDIAVEWESNGQPENNYKTTPPVLDSDGSFFLYSRLTVDKSRWQEGNVFSCSVMHEALHNHYTQKSLSLSLGK
heavy 2: EVQLVESGGGLVQPGRSLRLSCAASGFTFDDYSMHWVRQAPGKGLEWVSGISWNSGSIGYADSVKGRFTISRDNAKNSLYLQMNSLRAEDTALYYCAKYGSGYGKFYYYGMDVWGQGTTVTVSSASTKGPSVFPLAPCSRSTSESTAALGCLVKDYFPEPVTVSWNSGALTSGVHTFPAVLQSSGLYSLSSVVTVPSSSLGTKTYTCNVDHKPSNTKVDKRVESKYGPPCPPCPAPPVAGPSVFLFPPKPKDTLMISRTPEVTCVVVDVSQEDPEVQFNWYVDGVEVHNAKTKPREEQFNSTYRVVSVLTVLHQDWLNGKEYKCKVSNKGLPSSIEKTISKAKGQPREPQVYTLPPSQEEMTKNQVSLTCLVKGFYPSDIAVEWESNGQPENNYKTTPPVLDSDGSFFLYSRLTVDKSRWQEGNVFSCSVMHEALHNRFTQKSLSLSPGK
light: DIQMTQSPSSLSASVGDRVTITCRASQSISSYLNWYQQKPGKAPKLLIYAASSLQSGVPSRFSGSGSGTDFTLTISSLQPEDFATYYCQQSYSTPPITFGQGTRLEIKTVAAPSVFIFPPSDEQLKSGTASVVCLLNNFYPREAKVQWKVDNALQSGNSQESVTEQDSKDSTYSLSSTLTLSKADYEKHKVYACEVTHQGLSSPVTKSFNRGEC
notes: IgG4 Fc domain; two distinct heavy chains with a common light chain; also called anti-FcεR1α×CD3 bispecific antibody; FcεR1α × hCD3
B2: bsAb24921D (bispecific antibody, human IgG4 S228P, kappa)
heavy 1: QVQVQESGPRLVKPSETLSLTCTVSGGSMSSYYWIWIRQPPGKELEWIGYIYYSGSTNYNPSLKSRATISVDTSKNQFSLNLNSVTAADTAVYYCARRNNWNYVRAFDIWGQGTMVTVSSASTKGPSVFPLAPCSRSTSESTAALGCLVKDYFPEPVTVSWNSGALTSGVHTFPAVLQSSGLYSLSSVVTVPSSSLGTKTYTCNVDHKPSNTKVDKRVESKYGPPCPPCPAPPVAGPSVFLFPPKPKDTLMISRTPEVTCVVVDVSQEDPEVQFNWYVDGVEVHNAKTKPREEQFNSTYRVVSVLTVLHQDWLNGKEYKCKVSNKGLPSSIEKTISKAKGQPREPQVYTLPPSQEEMTKNQVSLTCLVKGFYPSDIAVEWESNGQPENNYKTTPPVLDSDGSFFLYSRLTVDKSRWQEGNVFSCSVMHEALHNHYTQKSLSLSLGK
heavy 2: B1 heavy 2
light: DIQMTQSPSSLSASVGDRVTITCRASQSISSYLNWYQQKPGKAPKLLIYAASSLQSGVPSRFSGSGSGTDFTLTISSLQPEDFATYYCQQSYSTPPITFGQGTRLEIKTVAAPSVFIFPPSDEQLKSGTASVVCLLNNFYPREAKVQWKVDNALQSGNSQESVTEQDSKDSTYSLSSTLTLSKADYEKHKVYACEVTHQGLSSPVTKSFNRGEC
notes: as for B1

Tests used:
[1] = target: T1, human FcεR1α expressed on cells; experiment: cell-based or functional assay
[2] = target: T1, human FcεR1α expressed on cells; experiment: flow cytometry, 70 nM antibody on HEK293/hFcεR1α/hFcεR1β/hFcεR1γ cells, No IgE
Procedure: (§1) For flow cytometry analysis, HEK293, HEK293/hFcεR1α/hFcεR1β/hFcεR1γ and HEK293/mf FcεR1α/hFcεR1β/hFcεR1γ cells were collected after dissociation using Enzyme Free Dissociation Buffer (Millipore Cat# S-004), and the cells were pre-incubated with or without 70 nM human IgE, for 30 minutes on ice in FACS buffer (PBS, without Ca⁺⁺ and Mg⁺⁺, (Irvine Scientific, Cat#9240) containing 2% FBS). Jurkat/NFAT-luc cells were also collected. The antibodies at the concentration of 70 nM were then added to 1×10⁶ cells/well of each cell type at 4° C. for 30 minutes. […] Cells were fixed using BD CytoFix™ (Becton Dickinson, Cat. #554655) and analyzed on Accuri™ C6 (BD) or CytoFLEX Flow cytometer (Beckman Coulter). Unstained and secondary antibody alone controls were also tested for all cell lines and a sample was evaluated for viability using the Far Red Fluo viability dye (Thermo Fisher, Cat#L10120) according to the manufacturer's protocol. The results were analyzed using FlowJo software (version 10.0.8, FlowJo) to determine the geometric means of fluorescence for viable cells and the binding ratio was calculated with the mean fluorescence intensity (MFI) of the experimental condition normalized by the MFI of the unstained respective cells.

hFcεR1α.MMH [3] = target: T2, hFcεR1α.MMH; experiment: SPR (Biacore 8k), antibody captured on anti-human Fc, hFcεR1α.MMH injected, 37°C
Procedure: (§2) Equilibrium dissociation constants (KD) for human or cynomolgus FcεR1α ectodomain binding to purified anti-FcεR1α monoclonal antibodies (mAbs) and CD3×FcεR1α bispecific antibodies (bsAbs) were determined using a real-time surface plasmon resonance biosensor (SPR-Biacore), Biacore 8k. All binding studies were performed in 10 mM HEPES, 150 mM NaCl, 3 mM EDTA, and 0.05% v/v surfactant Tween-20, pH 7.4 (HBS-ET) running buffer at 25° C. and 37° C.
(§3) The Biacore CM4 sensor surface was first derivatized by amine coupling with a monoclonal mouse anti-human Fc antibody to capture approximately 500-900 RUs anti-FcεR1α monoclonal antibodies or anti-CD3×FcεR1α bispecific monoclonal antibodies. 1 RU (response unit) represents 1 pg of protein per mm², as defined by the manufacturer. The ectodomain of human and cynomolgus FcεR1α reagents were expressed with a C-term myc-myc-6×His tag-hFcεR1α.MMH (SEQ ID NO: 57) and mfFcεR1α.MMH (SEQ ID NO: 58). Different concentrations of FcεR1α reagents were prepared in HBS-ET running buffer (600 nM-7.4 nM; serially diluted by 3-fold) and injected over anti-human Fc captured anti-FcεR1α monoclonal antibodies or anti-CD3×FcεR1α bispecific monoclonal antibodies surfaces for 1 minute at a flow rate of 30 μL/minute. The dissociation of bound FcεR1α reagents was monitored for 4 minutes in HBS-ET running buffer. Association (kₐ) and dissociation (kd) rate constants were determined by fitting the real-time binding sensorgrams to a 1:1 binding model with mass transport limitation using Biacore 8k evaluation software. Binding dissociation equilibrium constants (KD) and dissociative half-lives (t½) were calculated from the kinetic rate constants as: […]

[4] = target: T1, human FcεR1α expressed on cells; experiment: flow cytometry, 70 nM antibody on HEK293/hFcεR1α/hFcεR1β/hFcεR1γ cells pre-incubated with 70 nM human IgE
Procedure: as §1

hFcεR1α.MMH [5] = target: T2, hFcεR1α.MMH; experiment: SPR (Biacore 8k), antibody captured on anti-human Fc, hFcεR1α.MMH injected, 25°C
Procedure: as §2, §3

[6] = target: T4, human CD3 expressed in Jurkat cells (human, UniProt P07766 23-207; P04234 22-171; P20963 22-164; P09693 23-182); experiment: cell-based or functional assay
T4 sequence (P07766 23-207 limits assumed, chain 1 of 4): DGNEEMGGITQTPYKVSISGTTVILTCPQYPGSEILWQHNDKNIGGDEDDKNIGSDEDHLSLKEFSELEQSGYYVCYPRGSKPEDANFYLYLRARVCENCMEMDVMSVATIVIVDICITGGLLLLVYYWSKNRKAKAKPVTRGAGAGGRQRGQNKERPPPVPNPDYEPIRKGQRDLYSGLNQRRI
T4 sequence (P04234 22-171 limits assumed, chain 2 of 4): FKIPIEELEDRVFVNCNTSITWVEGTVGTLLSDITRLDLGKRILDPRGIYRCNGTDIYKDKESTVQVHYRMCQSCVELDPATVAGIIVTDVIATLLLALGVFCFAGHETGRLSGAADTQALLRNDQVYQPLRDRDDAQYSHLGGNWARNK
T4 sequence (P20963 22-164 limits assumed, chain 3 of 4): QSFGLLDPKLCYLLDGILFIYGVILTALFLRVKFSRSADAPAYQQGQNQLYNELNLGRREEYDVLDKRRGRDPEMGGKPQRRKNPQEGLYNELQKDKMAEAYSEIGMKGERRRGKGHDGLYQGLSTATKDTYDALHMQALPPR
T4 sequence (P09693 23-182 limits assumed, chain 4 of 4): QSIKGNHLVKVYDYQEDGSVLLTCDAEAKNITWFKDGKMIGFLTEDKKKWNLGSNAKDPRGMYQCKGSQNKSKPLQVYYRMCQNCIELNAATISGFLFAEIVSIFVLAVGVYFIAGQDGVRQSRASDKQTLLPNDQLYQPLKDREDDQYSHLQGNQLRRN

mfFcεR1α.MMH [7] = target: T3, mfFcεR1α.MMH; experiment: SPR (Biacore 8k), antibody captured on anti-human Fc, mfFcεR1α.MMH injected, 37°C
Procedure: as §2, §3

[8] = target: T4, human CD3 expressed in Jurkat cells; experiment: flow cytometry, 70 nM antibody on Jurkat/NFAT-luc cells, No IgE
Procedure: as §1

[9] = target: T5, monkey (cynomolgus) FcεR1α expressed on cells (cynomolgus); experiment: flow cytometry, 70 nM antibody on HEK293/mfFcεR1α/hFcεR1β/hFcεR1γ cells pre-incubated with 70 nM human IgE
T5 construct: range 4-260; On HEK293 cells, co-expressed with human FcεR1β and FcεR1γ; also called mfFcεR1α; HEK293/mfFcεR1α/hFcεR1β/hFcεR1γ cells
Procedure: as §1

mfFcεR1α.MMH [10] = target: T3, mfFcεR1α.MMH; experiment: SPR (Biacore 8k), antibody captured on anti-human Fc, mfFcεR1α.MMH injected, 25°C
Procedure: as §2, §3

[11] = target: T1, human FcεR1α expressed on cells; experiment: cell-based or functional assay; remark: listed apart in the source
[12] = target: T5, monkey (cynomolgus) FcεR1α expressed on …; experiment: flow cytometry, 70 nM antibody on HEK293/mfFcεR1α/hFcεR1β/hFcεR1γ cells, No IgE
Procedure: as §1

Row | Binder | EC80, cleaved caspase 3+ cleaved PARP+ HEK293/hFcεR1α/hFcεR1β/hFcεR1γ target cells with activated CD8+ T cells [1] | Maximum percent apoptotic cells, HEK293/hFcεR1α/hFcεR1β/hFcεR1γ target cells with activated CD8+ T cells [1] | Binding Ratio (MFI of Treated/MFI of Unstained) [2] | 600 nM hFcεR1α.MMH Bound (RU) (hFcεR1α.MMH [3]) | Kd (hFcεR1α.MMH [3]) | koff (hFcεR1α.MMH [3]) | kon (hFcεR1α.MMH [3]) | t½ (hFcεR1α.MMH [3]) | Binding Ratio (MFI of Treated/MFI of Unstained) [4] | 600 nM hFcεR1α.MMH Bound (RU) (hFcεR1α.MMH [5]) | Kd (hFcεR1α.MMH [5]) | koff (hFcεR1α.MMH [5]) | kon (hFcεR1α.MMH [5]) | t½ (hFcεR1α.MMH [5]) | EC50 [M], NFAT-luciferase in Jurkat/NFAT-luc with HEK293/hFcεR1α/hFcεR1β/hFcεR1γ cells, 10 nM IgE [6] | EC50 [M], NFAT-luciferase in Jurkat/NFAT-luc with HEK293/hFcεR1α/hFcεR1β/hFcεR1γ cells, No IgE [6] | Fold Activation, Jurkat/NFAT-luc with HEK293/hFcεR1α/hFcεR1β/hFcεR1γ cells, 10 nM IgE [6] | Fold Activation, Jurkat/NFAT-luc with HEK293/hFcεR1α/hFcεR1β/hFcεR1γ cells, No IgE [6] | 600 nM mfFceR1a.MMH Bound (RU) (mfFcεR1α.MMH [7]) | Kd (mfFcεR1α.MMH [7]) | further results
1 | B1 | 0.126 nM | 56.5% | 248 | 19 RU | 1550 nM | 0.0991 s⁻¹ | 63900 M⁻¹ s⁻¹ | 7.2 s | 201 | 46 RU | 303 nM | 0.02 s⁻¹ | 65900 M⁻¹ s⁻¹ | 36 s | 4.9e-09 M | 6.8e-10 M | 25 fold | 23 fold | 10 RU | 3350 nM | koff (mfFcεR1α.MMH [7]): 0.0445 s⁻¹; kon (mfFcεR1α.MMH [7]): 13300 M⁻¹ s⁻¹; t½ (mfFcεR1α.MMH [7]): 15.6 s; Binding Ratio (MFI of Treated/MFI of Unstained) [8]: 48; Binding Ratio (MFI of Treated/MFI of Unstained) [9]: 169; 600 nM mfFceR1a.MMH Bound (RU) (mfFcεR1α.MMH [10]): 26 RU; Kd (mfFcεR1α.MMH [10]): 467 nM; koff (mfFcεR1α.MMH [10]): 0.0195 s⁻¹; kon (mfFcεR1α.MMH [10]): 41700 M⁻¹ s⁻¹; t½ (mfFcεR1α.MMH [10]): 36 s; EC50, decrease of primary human basophils within PBMC with activated CD8+ T cells [11]: 20 nM; Maximum percent basophil decrease, PBMC with activated CD8+ T cells [11]: 80.1%; Binding Ratio (MFI of Treated/MFI of Unstained) [12]: 142
2 | B2 | 0.0613 nM | 55.8% | 253 | 40 RU | 977 nM | 0.0934 s⁻¹ | 95600 M⁻¹ s⁻¹ | 7.2 s | 295 | 69 RU | 274 nM | 0.0212 s⁻¹ | 77400 M⁻¹ s⁻¹ | 32.4 s | 1.1e-09 M | 2.3e-10 M | 27 fold | 24 fold | 37 RU | 520 nM | koff (mfFcεR1α.MMH [7]): 0.0445 s⁻¹; kon (mfFcεR1α.MMH [7]): 85600 M⁻¹ s⁻¹; t½ (mfFcεR1α.MMH [7]): 15.6 s; Binding Ratio (MFI of Treated/MFI of Unstained) [8]: 94; Binding Ratio (MFI of Treated/MFI of Unstained) [9]: 284; 600 nM mfFceR1a.MMH Bound (RU) (mfFcεR1α.MMH [10]): 60 RU; Kd (mfFcεR1α.MMH [10]): 256 nM; koff (mfFcεR1α.MMH [10]): 0.0161 s⁻¹; kon (mfFcεR1α.MMH [10]): 62900 M⁻¹ s⁻¹; t½ (mfFcεR1α.MMH [10]): 42 s; EC50, decrease of primary human basophils within PBMC with activated CD8+ T cells [11]: 4 nM; Maximum percent basophil decrease, PBMC with activated CD8+ T cells [11]: 90.9%; Binding Ratio (MFI of Treated/MFI of Unstained) [12]: 169
